The results in this text go back to US6512097.

In the experiment the target is T1, c-erbB-2 ECD with a Ser-Gly-His6 C-terminal fusion (UniProt P04626 23-652).
T1 construct: extracellular domain; Expressed from CHO cells, IMAC purified; coupled to a CM5 chip, coated on plates, or biotinylated with NHS-LC-biotin; also called c-erbB-2 extracellular domain; biotinylated c-erbB-2 ECD
Briefly: SPR BIAcore. On the procedure:
All assays were performed in triplicate. Briefly, […] of radioiodinated sFv was added to 5×10^6 SK-OV cells in the presence of increasing concentrations of unlabeled sFv from the same preparation. After a 30 minute incubation at 20° C., the samples were washed with PBS at 4° C. and centrifuged at 500 g. The amount of labeled sFv bound to the cells was determined by counting the pellets in a gamma counter and the K_a, and K_d were calculated using the EBDA program (V 2.0, G. A. McPherson, 1983). The K_d of all the other isolated sFv were determined using surface plasmon resonance in a BIAcore (Pharmacia). In a BIAcore flow cell, approximately 1400 resonance units (RU) of c-erbB-2 ECD (25 μg/ml in 10 mM sodium acetate, pH 4.5) was coupled to a CM5 sensor chip (Johnsson et al. (1991), supra). Association and dissociation-rates were measured under continuous flow of […] using a concentration range from 50 to 800 nM. Rate constant $kon$ was determined from a plot of (1(dR/dt))/t vs concentration (Karlsson et al. (1991), supra). Rate constant $Hoff$ was determined from the dissociation part of the sensorgram at the highest concentration of sFv analyzed.
Dashes indicate sequence identity. Mutations arising from PCR error and located outside V_H CDR3 are listed under the heading other mutations. F = frequency of isolated scFv. *$koff$ determined from unpurified scFv samples. Underline indicates mutated residue.
For orientation: Surface plasmon resonance follows binding to a sensor surface in real time, without labels.

Broadly, the Kd is the equilibrium constant for the complex coming apart. Lower therefore signals a tighter complex. As usually defined, the koff is a measure of how fast the partners let go of each other. The low end stands for a long-lived complex, the high end for a short-lived complex.

Values joined by “and” are separate entries in the source; they are usually repeats but may differ in a detail not shown here. Identical values can stand only once.

B1: C6MH3-B2 (scFv)
scFv: QVQLLQSGAELKKPGESLKISCKGSGYSFTSYWIAWVRQMPGKGLEYMGLIYPGDSDTKYSPSFQGQVTISVDKSVSTAYLQWSSLKPSDSAVYFCARHDVGYCTDPRCAKWPEYFQHWGQGTLVTVSSGGGGSGGGGSGGGGSQSVLTQPPSVSAAPGQKVTISCSGSSSNIGNNYVSWYQQLPGTAPKLLIYGHTNRPAGVPDRFSGSKSGTSASLAISGFRSEDEADYYCASWDYTLSGWVFGGGTKLTVLG
notes: C6ML3-9 sFv, VH CDR3 library B mutant
For B1, the Kd is 310 pM and 580 pM; the koff is 0.00031 s⁻¹ and 0.00032 s⁻¹.

B2: C6MH3-D3 (scFv)
scFv: QVQLLQSGAELKKPGESLKISCKGSGYSFTSYWIAWVRQMPGKGLEYMGLIYPGDSDTKYSPSFQGQVTISVDKSVSTAYLQWSSLKPSDSAVYFCARHDVGYCSSSNCAKWPEWLDNWGQGTLVTVSSGGGGSGGGGSGGGGSQSVLTQPPSVSAAPGQKVTISCSGSSSNIGNNYVSWYQQLPGTAPKLLIYGHTNRPAGVPDRFSGSKSGTSASLAISGFRSEDEADYYCASWDYTLSGWVFGGGTKLTVLG
notes: C6ML3-9 sFv, VH CDR3 library D mutant
On to B2, for which the Kd turned out to be 270 pM and the koff was found to be 0.00025 s⁻¹.

B3: C6MH3-B39 (scFv)
scFv: QVQLLQSGAELKKPGESLKISCKGSGYSFTSYWIAWVRQMPGKGLEYMGLIYPGDSDTKYSPSFQGQVTISVDKSVSTAYLQWSSLKPSDSAVYFCARHDVGYCTDPTCAKWPEYFQHWGQGTLVTVSSGGGGSGGGGSGGGGSQSVLTQPPSVSAAPGQKVTISCSGSSSNIGNNYVSWYQQLPGTAPKLLIYGHTNRPAGVPDRFSGSKSGTSASLAISGFRSEDEADYYCASWDYTLSGWVFGGGTKLTVLG
notes: as for B1
The molecule B3 showed a Kd of 320 pM and a koff of 0.00019 s⁻¹.

B4: C6MH3-C3 (scFv)
scFv: QVQLLQSGAELKKPEESLKISCKGSGYSFTSYWIAWVRQMPGKGLEYMGLIYPGDSDTKYSPSFQGQVTISVDKSVSTAYLQWSSLKPSDSAVYFCARHDVGYCSSSNCAKWPEYFQHWGQGTLVTVSSGGGGSGGGGSGGGGSQSVLTQPPSVSAAPGQKVTISCSGSSSNIGNNYVSWYQQLPGTAPKLLIYGHTDRPAGVPDRFSGSKSGTSASLAISGFRSEDEADYYCASWDYTLSGWVFGGGTKLTVLG
In the case of B4, the affinity, expressed as Kd, was 650 pM and the koff was 0.00032 s⁻¹.

B5: C6MH3-B20 (scFv)
scFv: QVQLLQSGAELKKPGESLKISCKGSGYSFTSYWIAWVRQMPGKGLEYMGLIYPGDSDTKYSPSFQGQVTISVDKSVSTAYLQWSSLKPSDSAVYFCARHDVGYCSPARCAKWPEYFQHWGQGTLVTVSSGGGGSGGGGSGGGGSQSVLTQPPSVSAAPGQKVTISCSGSSSNIGNNYVSWYQQLPGTAPKLLIYGHTNRPAGVPDRFSGSKSGTSASLAISGFRSEDEADYYCASWDYTLSGWVFGGGTKLTVLG
notes: as for B1
Turning to B5, the Kd was 870 pM and the koff came out at 0.00016 s⁻¹.

B6: C6MH3-B9 (scFv)
scFv: QVQLLQSGAELKKPGESLKISCKGSGYSFTSYWIAWVRQMPGKGLEYMGLIYPGDSDTKYSPSFQGQVTISVDKSVSTAYLQWSSLKPSDSAVYFCARHDVGYCKTAACAKWPEYFQHWGQGTLVTVSSGGGGSGGGGSGGGGSQSVLTQPPSVSAAPGQKVTISCSGSSSNIGNNYVSWYQQLPGTAPKLLIYGHTNRPAGVPDRFSGSKSGTSASLAISGFRSEDEADYYCASWDYTLSGWVFGGGTKLTVLG
notes: as for B1
B6 displayed a dissociation constant (Kd) of 870 pM and a koff of 0.00033 s⁻¹.

B7: C6MH3-B41 (scFv)
scFv: QVQLLQSGAELKKPGESLKISCKGSGYSFTSYWIAWVRQMPGKGLEYMGLIYPGDSDTKYSPSFQGQVTISVDKSVSTAYLQWSSLKPSDSAVYFCARHDVGYCTDRPCAKWPEYFQHWGQGTLVTVSSGGGGSGGGGSGGGGSQSVLTQPPSVSAAPGQKVTISCSGSSSNIGNNYVSWYQQLPGTAPKLLIYGHTNRPAGVPDRFSGSKSGTSASLAISGFRSEDEADYYCASWDYTLSGWVFGGGTKLTVLG
notes: as for B1
B7: the affinity, expressed as Kd, was 530 pM and the koff was found to be 0.00027 s⁻¹.

B8: C6MH3-B48 (scFv)
scFv: QVQLLQSGAELKKPGESLKISCKGSGYSFTSYWIAWVRQMPGKGLEYMGLIYPGDSDTKYSPSFQGQVTISVDKSVSTAYLQWSSLKPSDSAVYFCARHDVGYCTDPSCAKWPEYFQHWGQGTLVTVSSGGGGSGGGGSGGGGSQSVLTQPPSVSAAPGQKVTISCSGSSSNIGNNYVSWYQQLPGTAPKLLIYGHTNRPAGVPDRFSGSKSGTSASLAISGFRSEDEADYYCASWDYTLSGWVFGGGTKLTVLG
notes: as for B1
For B8, the Kd was found to be 230 pM and the koff is 0.00013 s⁻¹.

B9: C6MH3-B11 (scFv)
scFv: QVQLLQSGAELKKPGESLKISCKGSGYSFTSYWIAWVRQMPGKGLEYMGLIYPGDSDTKYSPSFQGQVTISVDKSVSTAYLQWSSLKPSDSAVYFCARHDVGYCSDRSCAKWPEYFQHWGQGTLVTVSSGGGGSGGGGSGGGGSQSVLTQPPSVSAAPGQKVTISCSGSSSNIGNNYVSWYQQLPGTAPKLLIYGHTNRPAGVPDRFSGSKSGTSASLAISGFRSEDEADYYCASWDYTLSGWVFGGGTKLTVLG
notes: as for B1
B9 displayed a Kd of 220 pM and a koff of 0.00023 s⁻¹.

B10: C6MH3-B15 (scFv)
scFv: QVQLLQSGAELKKPGESLKISCKGSGYSFTSYWIAWVRQMPGKGLEYMGLIYPGDSDTKYSPSFQGQVTISVDKSVSTAYLQWSSLKPSDSAVYFCARHDVGYCESSRCAKWPEYFQHWGQGTLVTVSSGGGGSGGGGSGGGGSQSVLTQPPSVSAAPGQKVTISCSGSSSNIGNNYVSWYQQLPGTAPKLLIYGHTNRPAGVPDRFSGSKSGTSASLAISGFRSEDEADYYCASWDYTLSGWVFGGGTKLTVLG
notes: as for B1
Molecule B10 showed a Kd of 770 pM and a koff of 0.00029 s⁻¹.

B11: C6MH3-D1 (scFv)
scFv: QVQLLQSGAELKKPGESLKISCKGSGYSFTSYWIAWVRQMPGKGLEYMGLIYPGDSDTKYSPSFQGQVTISVDKSVSTAYLQWSSLKPSDSAVYFCARHDVGYCSSSNCAKWPEWLHVWGQGTLVTVSSGGGGSGGGGSGGGGSQSVLTQPPSVSAAPGQKVTISCSGSSSNIGNNYVSWYQQLPGTAPKLLIYGHTNRPAGVPDRFSGSKSGTSASLAISGFRSEDEADYYCASWDYTLSGWVFGGGTKLTVLG
notes: as for B2
Consider B11, for which the Kd is 310 pM and the off-rate (koff) worked out at 0.00011 s⁻¹.

B12: C6MH3-B25 (scFv)
scFv: QVQLLQSGAELKKPGESLKISCKGSGYSFTSYWIAWVRQMPGKGLEYMGLIYPGDSDTKYSPSFQGQVTISVDKSVSTAYLQWSSLKPSDSAVYFCARHDVGYCLTTRCAKWPEYFQHWGQGTLVTVSSGGGGSGGGGSGGGGSQSVLTQPPSVSAAPGQKVTISCSGSSSNIGNNYVSWYQQLPGTAPKLLIYGHTNRPAGVPDRFSGSKSGTSASLAISGFRSEDEADYYCASWDYTLSGWVFGGGTKLTVLG
notes: as for B1
The molecule B12 had a Kd of 360 pM and a koff of 0.00019 s⁻¹.

B13: C6MH3-B5 (scFv)
scFv: QVQLLQSGAELKKPGESLKISCKGSGYSFTSYWIAWVRQMPGKGLEYMGLIYPGDSDTKYSPSFQGQVTISVDKSVSTAYLQWSSLKPSDSAVYFCARHDVGYCTDATCAKWPEYFQHWGQGTLVTVSSGGGGSGGGGSGGGGSQSVLTQPPSVSAAPGQKVTISCSGSSSNIGNNYVSWYQQLPGTAPKLLIYGHTNRPAGVPDRFSGSKSGTSASLAISGFRSEDEADYYCASWDYTLSGWVFGGGTKLTVLG
notes: as for B1
B13 registered a Kd of 340 pM and a koff of 0.00023 s⁻¹.

B14: C6MH3-B21 (scFv)
scFv: QVQLLQSGAELKKPGESLKISCKGSGYSFTSYWIAWVRQMPGKGLEYMGLIYPGDSDTKYSPSFQGQVTISVDKSVSTAYLQWSSLKPSDSAVYFCARHDVGYCTTPLCAKWPEYFQHWGQGTLVTVSSGGGGSGGGGSGGGGSQSVLTQPPSVSAAPGQKVTISCSGSSSNIGNNYVSWYQQLPGTAPKLLIYGHTNRPAGVPDRFSGSKSGTSASLAISGFRSEDEADYYCASWDYTLSGWVFGGGTKLTVLG
notes: as for B1
As to B14, the Kd was 730 pM and the koff was found to be 0.00024 s⁻¹.

B15: C6MH3-B16 (scFv)
scFv: QVQLLQSGAELKKPGESLKISCKGSGYSFTSYWIAWVRQMPGKGLEYMGLIYPGDSDTKYSPSFQGQVTISVDKSVSTAYLQWSSLKPSDSAVYFCARHDVGYCADVRCAKWPEYFQHWGQGTLVTVSSGGGGSGGGGSGGGGSQSVLTQPPSVSAAPGQKVTISCSGSSSNIGNNYVSWYQQLPGTAPKLLIYGHTNRPAGVPDRFSGSKSGTSASLAISGFRSEDEADYYCASWDYTLSGWVFGGGTKLTVLG
notes: as for B1
With B15, the Kd was found to be 310 pM and the koff turned out to be 0.00028 s⁻¹.

B16: C6MH3-B27 (scFv)
scFv: QVQLLQSGAELKKPGESLKISCKGSGYSFTSYWIAWVRQMPGKGLEYMGLIYPGDSDTKYSPSFQGQVTISVDKSVSTAYLQWSSLKPSDSAVYFCARHDVGYCKNSRCAKWPEYFQHWGQGTLVTVSSGGGGSGGGGSGGGGSQSVLTQPPSVSAAPGQKVTISCSGSSSNIGNNYVSWYQQLPGTAPKLLIYGHTNRPAGVPDRFSGSKSGTSASLAISGFRSEDEADYYCASWDYTLSGWVFGGGTKLTVLG
notes: as for B1
Take B16: the Kd worked out at 470 pM and the koff amounted to 0.0004 s⁻¹.
